The numbers were not newly measured in PMC7395068, “The evolution of strategies to minimise the risk of human drug-induced liver injury (DILI) in drug discovery and development” (Archives of Toxicology, 2020), which cites them from elsewhere.

The conditions of one data set: binary in vivo DILI call given beside the severity category; ref Chen 2016; cited from earlier work.
As for palivizumab, the “DILI +VE (5-8), DILI -VE (-4)” value is “-VE”. On to polymyxin b sulfate, for which the “DILI +VE (5-8), DILI -VE (-4)” value is “-VE”.

As to secretin, the “DILI +VE (5-8), DILI -VE (-4)” value is recorded as “-VE”.

For the compound sucralfate, the “DILI +VE (5-8), DILI -VE (-4)” value is on record as “-VE”. Take tinzaparin: the “DILI +VE (5-8), DILI -VE (-4)” value was “-VE”.

The data set is the same for the next values; noted with them: binary in vivo human DILI call; ref Chen 2016; cited from earlier work.
For “corticotropin (SYSMEHFRWGKPVGKKRRPVKVYPNGAEDESAEAFPLEF; Corticotropin; UniProt P01189 138-176, looked up)”, the “DILI +VE (5-8), DILI -VE (-4)” value is listed as “-VE”. For the compound denileukin diftitox, the “DILI +VE (5-8), DILI -VE (-4)” value was “-VE”. As to exenatide, the “DILI +VE (5-8), DILI -VE (-4)” value was “-VE”. Take gemtuzumab ozogamicin: the “DILI +VE (5-8), DILI -VE (-4)” value is recorded as “+VE”. In the case of glatiramer acetate, the “DILI +VE (5-8), DILI -VE (-4)” value is given as “-VE”.

Still in this data set, the particulars now being: human DILI concern category (LTKB DILIrank); ref Chen 2016; cited from earlier work.
As to palivizumab, the DILI severity category result is “vNo-DILI-Concern”. On to polymyxin b sulfate, for which the DILI severity category result is “vNo-DILI-Concern”. On to secretin, for which the DILI severity category result is reported as “vNo-DILI-Concern”. Turning to sucralfate, the DILI severity category result is recorded as “vNo-DILI-Concern”. In the case of tinzaparin, the DILI severity category result is “Ambiguous DILI-concern”.

The same data set, now with this note: human DILI, LTKB DILIrank category; ref Chen 2016; cited from earlier work.
For the compound “corticotropin (SYSMEHFRWGKPVGKKRRPVKVYPNGAEDESAEAFPLEF; Corticotropin; UniProt P01189 138-176, looked up)”, the DILI severity category entry was “vNo-DILI-Concern”. In the case of denileukin diftitox, the DILI severity category entry is reported as “Ambiguous DILI-concern”. As to exenatide, the DILI severity category result is “vNo-DILI-Concern”. In the case of gemtuzumab ozogamicin, the DILI severity category entry is reported as “vMost-DILI-Concern”. As to glatiramer acetate, the DILI severity category result is recorded as “Ambiguous DILI-concern”.

Staying with this data set, now noted: in vivo; cited from earlier work.
Regarding cholestyramine, the “DILI +VE (5-8), DILI -VE (-4)” value is on record as “-VE” and the DILI severity category entry is “Ambiguous DILI-concern”. On to colestipol, for which the “DILI +VE (5-8), DILI -VE (-4)” value is given as “-VE” and the DILI severity category result is recorded as “Ambiguous DILI-concern”. As to colistimethate, the “DILI +VE (5-8), DILI -VE (-4)” value is recorded as “-VE” and the DILI severity category entry was “vNo-DILI-Concern”. dalteparin sodium: the “DILI +VE (5-8), DILI -VE (-4)” value is “+VE” and the DILI severity category entry was “vLess-DILI-Concern”.

On to ecallantide, for which the “DILI +VE (5-8), DILI -VE (-4)” value is “-VE” and the DILI severity category result is “vNo-DILI-Concern”. Take enoxaparin: the “DILI +VE (5-8), DILI -VE (-4)” value is listed as “+VE” and the DILI severity category result is reported as “vLess-DILI-Concern”. As for epoetin alfa, the “DILI +VE (5-8), DILI -VE (-4)” value is “-VE” and the DILI severity category entry is on record as “vNo-DILI-Concern”. For the compound erythropoietin, the “DILI +VE (5-8), DILI -VE (-4)” value was “-VE” and the DILI severity category entry is on record as “vNo-DILI-Concern”. As for etanercept, the “DILI +VE (5-8), DILI -VE (-4)” value is on record as “+VE” and the DILI severity category result is “vLess-DILI-Concern”.

With ferumoxides, the “DILI +VE (5-8), DILI -VE (-4)” value was “-VE” and the DILI severity category result was “vNo-DILI-Concern”.

On to ferumoxytol, for which the “DILI +VE (5-8), DILI -VE (-4)” value is on record as “-VE” and the DILI severity category result is recorded as “vNo-DILI-Concern”.

With filgrastim, the “DILI +VE (5-8), DILI -VE (-4)” value is listed as “-VE” and the DILI severity category entry was “Ambiguous DILI-concern”. galsulfase: the “DILI +VE (5-8), DILI -VE (-4)” value is “-VE” and the DILI severity category result is on record as “vNo-DILI-Concern”. As for golimumab, the “DILI +VE (5-8), DILI -VE (-4)” value was “-VE” and the DILI severity category result is on record as “Ambiguous DILI-concern”. Consider heparin sodium, for which the “DILI +VE (5-8), DILI -VE (-4)” value was “+VE” and the DILI severity category result is “vLess-DILI-Concern”. As to hyaluronidase, the “DILI +VE (5-8), DILI -VE (-4)” value is reported as “-VE” and the DILI severity category entry is on record as “vNo-DILI-Concern”. In the case of infliximab, the “DILI +VE (5-8), DILI -VE (-4)” value was “+VE” and the DILI severity category result was “vMost-DILI-Concern”. interferon alfacon-1: the “DILI +VE (5-8), DILI -VE (-4)” value was “+VE” and the DILI severity category result is on record as “vMost-DILI-Concern”.

As for interferon beta-1b, the “DILI +VE (5-8), DILI -VE (-4)” value is “+VE” and the DILI severity category entry is listed as “vMost-DILI-Concern”. Take lepirudin: the “DILI +VE (5-8), DILI -VE (-4)” value is “-VE” and the DILI severity category result is “Ambiguous DILI-concern”. Turning to mecasermin, the “DILI +VE (5-8), DILI -VE (-4)” value was “-VE” and the DILI severity category result is “Ambiguous DILI-concern”.

On to muromonab-cd3, for which the “DILI +VE (5-8), DILI -VE (-4)” value is given as “-VE” and the DILI severity category result is given as “Ambiguous DILI-concern”. For natalizumab, the “DILI +VE (5-8), DILI -VE (-4)” value was “+VE” and the DILI severity category result was “vMost-DILI-Concern”.

For the compound nesiritide, the “DILI +VE (5-8), DILI -VE (-4)” value is given as “-VE” and the DILI severity category entry is “vNo-DILI-Concern”.

With ofatumumab, the “DILI +VE (5-8), DILI -VE (-4)” value is listed as “-VE” and the DILI severity category entry is “vNo-DILI-Concern”. On to omalizumab, for which the “DILI +VE (5-8), DILI -VE (-4)” value was “-VE” and the DILI severity category entry is on record as “vNo-DILI-Concern”. On to panitumumab, for which the “DILI +VE (5-8), DILI -VE (-4)” value is “-VE” and the DILI severity category entry was “vNo-DILI-Concern”. As for peginterferon alfa-2a, the “DILI +VE (5-8), DILI -VE (-4)” value is listed as “-VE” and the DILI severity category result is “Ambiguous DILI-concern”. As to pentosan polysulfate, the “DILI +VE (5-8), DILI -VE (-4)” value is “-VE” and the DILI severity category entry is listed as “Ambiguous DILI-concern”.

Regarding polyethylene glycol 3350, the “DILI +VE (5-8), DILI -VE (-4)” value is reported as “-VE” and the DILI severity category result is given as “vNo-DILI-Concern”. With “pramlintide (KCNTATCATQRLANFLVHSSNNFGPILPPTNVGSNTY; chains of the INN, looked up)”, the “DILI +VE (5-8), DILI -VE (-4)” value was “-VE” and the DILI severity category entry is recorded as “vNo-DILI-Concern”. With protamine sulfate, the “DILI +VE (5-8), DILI -VE (-4)” value is reported as “-VE” and the DILI severity category result is reported as “vNo-DILI-Concern”. Take rilonacept: the “DILI +VE (5-8), DILI -VE (-4)” value was “-VE” and the DILI severity category entry is “vNo-DILI-Concern”. As to romiplostim, the “DILI +VE (5-8), DILI -VE (-4)” value is on record as “-VE” and the DILI severity category entry is on record as “vNo-DILI-Concern”. On to sacrosidase, for which the “DILI +VE (5-8), DILI -VE (-4)” value is on record as “-VE” and the DILI severity category result is on record as “Ambiguous DILI-concern”. On to sargramostim, for which the “DILI +VE (5-8), DILI -VE (-4)” value is given as “-VE” and the DILI severity category result is “vNo-DILI-Concern”. As to simethicone, the “DILI +VE (5-8), DILI -VE (-4)” value is given as “-VE” and the DILI severity category result is on record as “vNo-DILI-Concern”. Turning to somatropin recombinant, the “DILI +VE (5-8), DILI -VE (-4)” value is reported as “-VE” and the DILI severity category entry was “vNo-DILI-Concern”.

Take teriparatide: the “DILI +VE (5-8), DILI -VE (-4)” value is reported as “-VE” and the DILI severity category result is given as “vNo-DILI-Concern”. On to triptorelin pamoate, for which the “DILI +VE (5-8), DILI -VE (-4)” value is on record as “+VE” and the DILI severity category entry is “vLess-DILI-Concern”.

As for urokinase, the “DILI +VE (5-8), DILI -VE (-4)” value is given as “-VE” and the DILI severity category entry was “vNo-DILI-Concern”. ustekinumab: the “DILI +VE (5-8), DILI -VE (-4)” value was “-VE” and the DILI severity category entry is “vNo-DILI-Concern”. verteporfin: the “DILI +VE (5-8), DILI -VE (-4)” value is “-VE” and the DILI severity category entry is listed as “Ambiguous DILI-concern”.

Take vitamin e: the “DILI +VE (5-8), DILI -VE (-4)” value is “-VE”.

The conditions of the next data set: […]; cited from earlier work.
As to `O=S(=O)([O-])[O-].[Fe+2]` [ferrous sulfate], the “In vivo DILI” value was “+VE”.

In the case of `CC1(C)O[C@@H]2C[C@H]3[C@@H]4C[C@H](F)C5=CC(=O)C=C[C@]5(C)[C@H]4[C@@H](O)C[C@]3(C)[C@]2(C(=O)CO)O1` [flunisolide], the “In vivo DILI” value is “-VE”.

Still in this data set, the particulars now being: assignment in O'Brien 2006; ref O'Brien 2006; cited from earlier work.
As to `CC(=O)Nc1ccc2c(c1)Cc1ccccc1-2` [acetamido uorene], the “In vivo DILI” value is reported as “+VE”. With `C=CCO` [ally alcohol], the “In vivo DILI” value is recorded as “+VE”.

Turning to `c1ccc2c(c1)cc1ccc3cccc4ccc2c1c34` [benzopyrene], the “In vivo DILI” value is “+VE”.

For `C[N+](C)(C)CC(=O)O.[Cl-]` [betaine hcl (acidic)], the “In vivo DILI” value is listed as “+VE”. Regarding `Brc1ccccc1` [bromobenzene], the “In vivo DILI” value is reported as “+VE”. `CCCCSCCC(N)C(=O)O` (centres unmarked) [buthionine]: the “In vivo DILI” value is on record as “+VE”.

Regarding `ClC(Cl)(Cl)Cl` [carbon tetrachloride], the “In vivo DILI” value is “+VE”. For the compound `C=C1[C@@H](C)[C@H]2[C@H](Cc3ccccc3)NC(=O)[C@]23OC(=O)/C=C/[C@H](O)CCC[C@@H](C)C/C=C/[C@H]3[C@@H]1O` [cytochalasin b], the “In vivo DILI” value is recorded as “+VE”. `C=C1[C@@H](C)[C@H]2[C@H](Cc3ccccc3)NC(=O)[C@]23[C@H](OC(C)=O)/C=C/[C@@](C)(O)C(=O)[C@@H](C)C/C=C/[C@H]3[C@@H]1O` [cytochalasin d]: the “In vivo DILI” value is listed as “+VE”. As to `CCSCC[C@H](N)C(=O)O` [ethionine], the “In vivo DILI” value was “+VE”.

The same data set, now with this note: in vivo; cited from earlier work.
`CC1(C)[C@@H](O)CC[C@]2(C)[C@H]3C(=O)C=C4[C@@H]5C[C@@](C)(C(=O)O)CC[C@]5(C)CC[C@@]4(C)[C@]3(C)CC[C@@H]12` [18 beta-glycyrrhetic acid]: the “In vivo DILI” value was “-VE”. Turning to `CN(C)[C@@H]1C(O)=C(C(N)=O)C(=O)[C@@]2(O)C(O)=C3C(=O)c4c(O)ccc(Cl)c4[C@@](C)(O)[C@H]3C[C@@H]12` [chlortetracycline], the “In vivo DILI” value was “+VE”. Regarding `CC1(COc2ccc(CC3SC(=O)NC3=O)cc2)CCCCC1` (centres unmarked) [ciglitizone], the “In vivo DILI” value is on record as “-VE”. Regarding `O=C(O)CC(O)(CC(=O)O)C(=O)O` [citrate], the “In vivo DILI” value was “-VE”. Take `CC/C(=C(/CC)c1ccc(O)cc1)c1ccc(O)cc1` [diethylsilbesterol]: the “In vivo DILI” value was “+VE”. On to `c1cc[n+]2c(c1)-c1cccc[n+]1CC2` [diquat], for which the “In vivo DILI” value was “+VE”. Regarding `C[C@]12CC[C@@H]3c4ccc(O)cc4CC[C@H]3[C@@H]1C[C@@H](O)[C@@H]2O` [estriol], the “In vivo DILI” value was “-VE”. For `C=CCc1ccc(O)c(OC)c1` [eugenol], the “In vivo DILI” value was “+VE”. Take `C=O` [formaldehyde]: the “In vivo DILI” value is given as “+VE”.
